Measurements as given in patent US20230227568A1 (Pieris, published 2023).
Read-outs that look alike come from different tables or passages of the source.

T1: human OX40 on cells (human, UniProt P43489 29-277)
T1 construct: whole, on cells; Stably transfected CHO cells (flow cytometry) and bought Jurkat reporter cells (OX40 bioassay); also called Flp-In-CHO::huOX40; human OX40-expressing CHO cells
T1 sequence (looked up): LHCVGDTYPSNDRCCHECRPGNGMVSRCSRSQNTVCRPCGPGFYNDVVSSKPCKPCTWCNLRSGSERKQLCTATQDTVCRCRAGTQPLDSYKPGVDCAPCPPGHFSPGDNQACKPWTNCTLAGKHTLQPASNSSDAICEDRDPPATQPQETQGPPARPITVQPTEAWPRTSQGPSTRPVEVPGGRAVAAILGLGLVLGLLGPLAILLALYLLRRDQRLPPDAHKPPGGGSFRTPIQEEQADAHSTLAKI


Key:
[1] = molecular target: T1, human OX40 on cells; experiment: flow cytometry, Flp-In-CHO::huOX40 cells
Procedure: (§1) 5×10⁴ cells per well were incubated for 1 h in ice-cold PBS containing 5% fetal calf serum (PBS-FCS). A dilution series of the tested multimeric proteins (SEQ ID NOs: 38-44 and 46-55), the 4-1BB-targeting lipocalin mutein as included in the multimeric proteins (SEQ ID NO: 64) or the GPC3-targeting lipocalin SEQ ID NO: 90 were added to the cells and incubated for 1 h on ice. Cells were washed twice with PBS and then incubated with a rabbit anti-NGAL or a goat anti-human IgG labeled with fluorescent dye Alexa 488 for 30 min on ice. Human IgG4 isotype (SEQ ID NOs: 29 and 30) and lipocalin mutein SEQ ID NO: 8 were tested as a negative control. Cells were subsequently washed and analyzed using iQue Flow cytometer (Intellicyte Screener). Mean geometric fluorescent signals were plotted and fitted with Graphpad software using nonlinear regression (shared bottom, four parameters, variable slope).
(§2) Target-specific binding of hexavalent trimeric proteins to human 4-1BB-, OX40- or PD-L1-expressing cells was assessed by flow cytometry as described in Example 5, using CHO cells stably transfected with human 4-1BB, human OX40 or human PD-L1 (Flp-In system; Life Technologies).

[2] = molecular target: T2, human 4-1BB on cells (human, UniProt Q07011 24-255); experiment: flow cytometry, Flp-In-CHO::hu4-1BB cells
T2 construct: whole, on cells; Stably transfected CHO cells (flow cytometry) and bought Jurkat reporter cells (bioassay); also called Flp-In-CHO::hu4-1BB; human 4-1BB-expressing CHO cells
Procedure: as §1, §2

[3] = molecular target: T3, huGPC3-His (human GPC3 with C-terminal polyhistidine tag, R&D Systems) (human, UniProt P51654 25-559, limits assumed); experiment: dual-binding ELISA, huGPC3-His coated, detection with biotinylated hu4-1BB-His and Extravidin-HRP
T3 construct: Bought; not shown: C-terminal polyhistidine tag
Procedure: Recombinant huGPC3-His (human GPC3 with C-terminal polyhistidine tag, R&D Systems) at the concentration of 1 μg/mL in PBS was coated overnight on microtiter plates at 4° C. After washing with PBS-0.05% T (PBS supplemented with 0.05% (v/v) Tween 20), the plates were blocked with 2% BSA (w/v) in PBS-0.1% T (PBS supplemented with 0.1% (v/v) Tween 20) for 1 h at room temperature. After washing with 100 μL PBS-0.05% T five times, exemplary multimeric proteins (SEQ ID NOs: 54 and 55) at different concentrations, ranging from 100 to 0.002 nM, were added to the wells and incubated for 1 h at room temperature, followed by another wash step. Bound molecules under study were detected by incubation with 1 μg/mL recombinant hu4-1BB-His (biotinylated human 4-1BB with C-terminal polyhistidine tag, Sino Biological) in PBS-0.1% T-2% BSA for 1 h. This step was followed by a further wash step and incubation with 1:5000 diluted Extravidin-HRP in PBS-0.1% T-2% BSA. After an additional wash step, fluorogenic HRP substrate (QuantaBlu, Thermo) was added to each well and the fluorescence intensity was detected using a fluorescence microplate reader.

[4] = molecular target: T2, human 4-1BB on cells; experiment: flow cytometry, Flp-In-CHO::hu4-1BB cells; remark: listed apart in the source
Procedure: (§3) CHO cells were stably transfected with human 4-1BB, cynomolgus 4-1BB, or a mock control using the Flp-In system (Life Technologies) according to the manufacturer's instructions. Transfected CHO cells were maintained in Ham's F12 medium (Life Technologies) supplemented with 10% Fetal Calf Serum (Biochrom) and 500 μg/ml Hygromycin B (Roth). Cells were cultured in cell culture flasks according to manufacturer's instruction (37° C., 5% CO₂ atmosphere).
as §1

[5] = molecular target: T4, cynomolgus 4-1BB on CHO cells (cynomolgus, UniProt A9YYE7 24-254); experiment: flow cytometry, Flp-In-CHO::cyno4-1BB cells
T4 construct: also called Flp-In-CHO::cyno4-1BB; cynomolgus 4-1BB-expressing CHO cells
Procedure: as §3, §1

[6] = molecular target: T5, hu4-1BB-Fc (R&D Systems) (human, UniProt Q07011 24-186); experiment: SPR (Biacore 8K), hu4-1BB-Fc captured by anti-human IgG Fc; apparent value, 1:1 fit
T5 construct: Bought; also called human 4-1BB; not shown: human IgG Fc of the bought fusion
Procedure: The anti-human IgG Fc antibody (GE Healthcare) was immobilized on a CM5 sensor chip using standard amine chemistry: the carboxyl groups on the chip were activated using 1-ethyl-3-(3-dimethylaminopropyl)-carbodiimide (EDC) and N-hydroxysuccinimide (NHS). Subsequently, anti-human IgG Fc antibody solution (GE Healthcare) at a concentration of 25 μg/mL in 10 mM sodium acetate (pH 5.0) was applied at a flow rate of 5 μL/min until an immobilization level of 4000-10000 resonance units (RU) was achieved. Residual non-reacted NHS-esters were blocked by passing a solution of 1 M ethanolamine across the surface. The reference channel was treated in an analogous manner. Subsequently, hu4-1BB-Fc (R&D Systems) at 0.3 μg/mL was captured by the anti-human IgG-Fc antibody at the chip surface for 180 s at a flow rate of 10 μL/min.
The binding assay was carried out with a contact time of 180 s, a dissociation time of 1200 s or 3000 s and a flow rate of 30 μL/min. All measurements were performed at 25° C. Lipocalin mutein SEQ ID NO: 64 as included in the multimeric proteins was also tested as […]. […] Prior to the protein measurements, three startup cycles were performed for conditioning purposes. Data were evaluated with Biacore Evaluation software. Double referencing was used and the 1:1 binding model was used to fit the raw data.

[7] = molecular target: T6, human GPC3 on HepG2 cells (human, UniProt P51654 25-554); experiment: flow cytometry, HepG2 cells
T6 construct: whole, on cells; Endogenous GPC3 of the tumor cell line; also called GPC3-positive tumor cell line HepG2; human GPC3-expressing HepG2 cells
Procedure: (§4) GPC3-positive tumor cell line HepG2 was cultured in Dulbecco's Modified Eagle's Medium ([…], Pan Biotech) supplemented with 10% Fetal Calf Serum (Sigma-Aldrich) and in cell culture flasks according to manufacturer's instruction (37° C., 5% CO₂ atmosphere).
as §1

[8] = molecular target: T2, human 4-1BB on cells; experiment: cell-based or functional assay
[9] = molecular target: T3, huGPC3-His (human GPC3 with C-terminal …); experiment: ELISA, huGPC3-His coated, detection anti-NGAL-HRP
Procedure: (§5) Recombinant hu4-1BB-His (human 4-1BB with a C-terminal polyhistidine tag, R&D Systems) at the concentration of 1 μg/mL in PBS was coated overnight on microtiter plates at 4° C. After washing with PBS-0.05% T (PBS supplemented with 0.05% (v/v) Tween 20), the plates were blocked with 2% BSA (w/v) in PBS-0.1% T (PBS supplemented with 0.1% (v/v) Tween 20) for 1 h at room temperature. After washing with 100 μL PBS-0.05% T five times, exemplary multimeric proteins (SEQ ID NOs: 38-44 and 46-53) or 4-1BB-specific lipocalin mutein as included in the multimeric protein (SEQ ID NO: 64) at different concentrations, ranging from 100 to 0.002 nM, were added to the wells and incubated for 1 h at room temperature, followed by another wash step. Bound molecules under study were detected by incubation with 1:1000 diluted anti-NGAL-HRP in PBS-0.1% T-2% BSA. After an additional wash step, fluorogenic HRP substrate (QuantaBlu, Thermo) was added to each well and the fluorescence intensity was detected using a fluorescence microplate reader.
The same ELISA setup was also employed to determine the binding potency of exemplary bispecific multimeric proteins (SEQ ID NO: 54 and SEQ ID NO: 55) to GPC3, where huGPC3-His (human GPC3 with C-terminal polyhistidine tag, R&D Systems) was instead coated on a microtiter plate. The testing agents were similarly titrated and bound agents detected.

[10] = molecular target: T4, cynomolgus 4-1BB on CHO cells; experiment: flow cytometry on Flp-In-CHO::cyCD137 (cynomolgus 4-1BB) cells, anti-NGAL detection, GeoMean BL1-H [Cont'd) B]
Procedure: as §3, §1

[11] = molecular target: T7, recombinant hu4-1BB-His (human 4-1BB with a C-terminal polyhistidine tag, R&D Systems) (human, UniProt Q07011 24-186); experiment: ELISA, hu4-1BB-His coated, detection anti-NGAL-HRP
T7 construct: Bought; not shown: C-terminal polyhistidine tag
Procedure: as §5
The results of exemplary experiments are depicted in FIG. 2, together with the fit curves resulting from a 1:1 binding sigmoidal fit, where the EC₅₀ value and the maximum signal were free parameters, and the slope was fixed to one. The observed EC₅₀ values toward the hu4-1BB of all tested multimeric proteins were in the sub nanomolar range.

[12] = molecular target: T2, human 4-1BB on cells; experiment: flow cytometry on Flp-In-CHO::huCD137 (human 4-1BB) cells, anti-NGAL detection, GeoMean BL1-H
Procedure: as §3, §1

[13] = molecular target: T6, human GPC3 on HepG2 cells; experiment: flow cytometry on HepG2 cells (human GPC3), anti-NGAL detection, GeoMean BL1-H [Cont'd) C]
Procedure: as §4, §1

T2 sequence (Q07011 24-255): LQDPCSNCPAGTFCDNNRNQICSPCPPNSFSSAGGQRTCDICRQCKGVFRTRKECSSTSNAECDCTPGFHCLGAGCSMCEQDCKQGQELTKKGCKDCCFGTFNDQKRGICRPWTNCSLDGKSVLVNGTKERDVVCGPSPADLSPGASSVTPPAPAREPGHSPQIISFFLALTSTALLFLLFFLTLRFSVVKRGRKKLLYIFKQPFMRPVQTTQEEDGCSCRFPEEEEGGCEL
T4 sequence (A9YYE7 entry or part of it limits assumed): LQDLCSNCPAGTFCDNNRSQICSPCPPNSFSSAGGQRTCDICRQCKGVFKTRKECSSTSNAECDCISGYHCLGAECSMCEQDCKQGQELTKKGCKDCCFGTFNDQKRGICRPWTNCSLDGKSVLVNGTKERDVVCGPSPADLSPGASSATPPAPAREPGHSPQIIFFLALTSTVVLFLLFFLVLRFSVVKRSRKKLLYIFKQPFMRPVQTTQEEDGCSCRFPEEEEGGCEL
T6 sequence (P51654 25-554 limits assumed): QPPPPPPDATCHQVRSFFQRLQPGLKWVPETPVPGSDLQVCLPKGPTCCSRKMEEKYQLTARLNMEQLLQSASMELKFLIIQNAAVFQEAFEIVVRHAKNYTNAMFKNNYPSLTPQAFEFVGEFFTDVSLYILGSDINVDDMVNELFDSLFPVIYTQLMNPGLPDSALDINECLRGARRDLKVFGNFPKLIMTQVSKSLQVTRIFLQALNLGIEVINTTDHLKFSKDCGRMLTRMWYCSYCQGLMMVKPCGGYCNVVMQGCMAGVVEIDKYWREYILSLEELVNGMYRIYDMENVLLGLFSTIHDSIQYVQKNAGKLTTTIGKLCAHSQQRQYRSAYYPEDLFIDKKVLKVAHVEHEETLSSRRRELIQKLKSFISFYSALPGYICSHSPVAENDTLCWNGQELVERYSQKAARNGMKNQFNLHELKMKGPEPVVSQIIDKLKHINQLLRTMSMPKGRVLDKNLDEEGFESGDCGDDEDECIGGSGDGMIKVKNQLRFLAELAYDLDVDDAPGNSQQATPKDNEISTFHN
T3 sequence (P51654 25-559 limits assumed): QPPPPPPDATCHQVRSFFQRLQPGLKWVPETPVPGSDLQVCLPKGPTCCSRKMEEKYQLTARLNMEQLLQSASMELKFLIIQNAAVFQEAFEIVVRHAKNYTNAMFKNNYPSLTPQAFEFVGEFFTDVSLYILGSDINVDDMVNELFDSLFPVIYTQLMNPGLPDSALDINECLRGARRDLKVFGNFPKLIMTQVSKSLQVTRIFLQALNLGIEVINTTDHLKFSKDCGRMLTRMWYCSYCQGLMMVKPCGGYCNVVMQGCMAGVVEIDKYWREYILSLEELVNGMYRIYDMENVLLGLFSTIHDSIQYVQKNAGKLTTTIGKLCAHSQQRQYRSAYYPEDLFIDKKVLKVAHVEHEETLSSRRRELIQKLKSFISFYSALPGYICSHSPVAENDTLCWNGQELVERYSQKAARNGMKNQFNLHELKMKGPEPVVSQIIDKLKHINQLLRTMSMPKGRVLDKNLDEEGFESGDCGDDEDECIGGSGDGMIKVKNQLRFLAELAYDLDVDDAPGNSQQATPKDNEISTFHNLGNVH

EC50 [1] [nM]	EC50 [2] [nM]	EC50 [3] [nM]	EC50 [4] [nM]	EC50 [5] [nM]	Kd [6] [nM]	koff [6] [s⁻¹]	kon [6] [M⁻¹ s⁻¹]	EC50 [7] [nM]	EC50 [nM], 4-1BB bioassay (NFκB-luc2/4-1BB Jurkat luminescence), with HepG2 cells [8] [nM]	EC50 [9] [nM]	EC50 (read off the curve) [10] [nM]	EC50 [11] [nM]	EC50 (read off the curve) [12] [nM]	binding result [5]	binding result [13]	Binder
		0.63	5.49	5.99	0.26	1.99e-05	77900	3.07	0.38	0.15						bispecific multimeric protein SEQ ID NO: 54 (designed binder) QVQLVQSGAEVKKPGASVKVSCKASGYTFTDYEMHWVRQAPGQGLEWMGALDPKTGDTAYSQKFKGRVTLTADKSTSTAYMELSSLTSEDTAVYYCTRFYSYTYWGQGTLVTLVSSGGGGSGGGGSGGGGSGGGGSDVVMTQSPLSLPVTPGEPASISCRSSQSLVHSNRNTYLHWYLQKPGQSPQLLIYKVSNRFSGVPDRFSGSGSGTDFTLKISRVEAEDVGVYYCSQNTHVPPTFGQGTKLEIKGGGGSGGGGSGGGGSGVRLWATRQAMLGQVHEVPEGWLIFVAEQEELYVRVQNGFRKVQLEARTPLGGGGSGGGGSGGGGSQDSTSDLIPAPPLSKVPLQQNFQDNQFHGKWYVVGQAGNIRLREDKDPIKMMATIYELKEDKSYDVTMVKFDDKKCMYDIWTFVPGSQPGEFTLGKIKSFPGHTSSLVRVVSTNYNQHAMVFFKFVFQNREEFYITLYGRTKELTSELKENFIRFSKSLGLPENHIVFPVPIDQCIDGGGSGGAPEQKLISEEDLGSHHHHHHHHHH
					1.18	9.75e-05	82300				~1	0.18	~2			multimeric protein SEQ ID NO: 40 (designed binder) QDSTSDLIPAPPLSKVPLQQNFQDNQFHGKWYVVGQAGNIRLREDKDPIKMMATIYELKEDKSYDVTMVKFDDKKCMYDIWTFVPGSQPGEFTLGKIKSFPGHTSSLVRVVSTNYNQHAMVFFKFVFQNREEFYITLYGRTKELTSELKENFIRFSKSLGLPENHIVFPVPIDQCIDGGGGGSGGGGSGGGGSGGGGSGGGGSGVRLWATRQAMLGQVHEVPEGWLIFVAEQEELYVRVQNGFRKVQLEARTPLGGSGGAPEQKLISEEDLGSHHHHHHHHHH

The next lines start with the binder.

Binder	EC50 [1] [nM]	EC50 [2] [nM]	EC50 [3] [nM]	EC50 [4] [nM]	EC50 [5] [nM]	Kd [6] [nM]	koff [6] [s⁻¹]	kon [6] [M⁻¹ s⁻¹]	EC50 [7] [nM]	EC50 [nM], 4-1BB bioassay (NFκB-luc2/4-1BB Jurkat luminescence), with HepG2 cells [8] [nM]	EC50 [9] [nM]	EC50 (read off the curve) [10] [nM]	EC50 [11] [nM]	EC50 (read off the curve) [12] [nM]	binding result [5]	binding result [13]
bispecific hexavalent trimeric protein SEQ ID NO: 164 (designed binder) QDSTSDLIPAPPLSKVPLQQNFQDNQFHGKWYVVGQAGNIRLREDKDPIKMMATIYELKEDKSYDVTMVKFDDKKCMYDIWTFVPGSQPGEFTLGKIKSFPGHTSSLVRVVSTNYNQHAMVFFKFVFQNREEFYITLYGRTKELTSELKENFIRFSKSLGLPENHIVFPVPIDQCIDGGGGGSGGGGSGGGGSGVRLWATRQAMLGQVHEVPEGWLIFVAEQEELYVRVQNGFRKVQLEARTPLGGGGSGGGGSGGGGSQDSTSDLIPAPPLSKVPLQQNFQDSQFQGKWYVVGFAGNYRLREDKDPGKMQATIYELREDKAYQVTGVLFPHKKCHDDIVIFVPGSQPGEFILGWIKSDPGITSDLVRVVSTDYNQHAMVFFKWVFQNREWFYITLYGRTKALTSELKENFIRFSKSLGLPEDHIVFPVPIDQCIDGGGSGGAPEQKLISEEDLGSHHHHHHHHHH	0.71	3.03														
4-1BB-specific lipocalin mutein SEQ ID NO: 64 (designed binder, Monomeric hNGAL mutein; also called 4-1BB-targeting lipocalin mutein as included in the multimeric proteins) QDSTSDLIPAPPLSKVPLQQNFQDNQFHGKWYVVGQAGNIRLREDKDPIKMMATIYELKEDKSYDVTMVKFDDKKCMYDIWTFVPGSQPGEFTLGKIKSFPGHTSSLVRVVSTNYNQHAMVFFKFVFQNREEFYITLYGRTKELTSELKENFIRFSKSLGLPENHIVFPVPIDQCIDG				3.99		0.76	7.08e-05	92700					0.41		no binding	no binding (tested: about 200 nM)
